According to US10428140B2, “Anti-EphA4 antibody” (EISAI R&D MANAGEMENT CO., LTD., priority 2015, dated 2019):

T1: human EphB3 (Homo sapiens, UniProt P54753)
T1 construct: a protein of the extracellular region of each human Eph receptor fused with the SEAP protein and the His tag; made in house; host or cells: Expi293F cells
T1 sequence (P54753 34-559 limits assumed): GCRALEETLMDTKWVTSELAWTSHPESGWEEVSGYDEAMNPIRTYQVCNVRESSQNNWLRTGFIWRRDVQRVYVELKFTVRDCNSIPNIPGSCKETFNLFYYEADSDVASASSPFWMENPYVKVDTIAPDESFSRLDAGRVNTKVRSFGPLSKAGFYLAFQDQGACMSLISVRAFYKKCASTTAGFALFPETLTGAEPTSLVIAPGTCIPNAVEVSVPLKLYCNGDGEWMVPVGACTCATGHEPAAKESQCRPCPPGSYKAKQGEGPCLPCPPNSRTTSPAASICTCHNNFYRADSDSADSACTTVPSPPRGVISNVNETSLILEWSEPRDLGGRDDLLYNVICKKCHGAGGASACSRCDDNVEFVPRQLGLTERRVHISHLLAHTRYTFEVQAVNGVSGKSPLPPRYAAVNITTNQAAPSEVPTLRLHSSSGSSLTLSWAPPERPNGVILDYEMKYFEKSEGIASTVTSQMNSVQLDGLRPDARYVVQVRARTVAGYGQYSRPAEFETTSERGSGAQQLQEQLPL

T2: human EphA10 (Homo sapiens, UniProt Q5JZY3)
T2 construct: a protein of the extracellular region of each human Eph receptor fused with the SEAP protein and the His tag; made in house; host or cells: Expi293F cells (culture supernatant)
T2 sequence (Q5JZY3 34-565 limits assumed): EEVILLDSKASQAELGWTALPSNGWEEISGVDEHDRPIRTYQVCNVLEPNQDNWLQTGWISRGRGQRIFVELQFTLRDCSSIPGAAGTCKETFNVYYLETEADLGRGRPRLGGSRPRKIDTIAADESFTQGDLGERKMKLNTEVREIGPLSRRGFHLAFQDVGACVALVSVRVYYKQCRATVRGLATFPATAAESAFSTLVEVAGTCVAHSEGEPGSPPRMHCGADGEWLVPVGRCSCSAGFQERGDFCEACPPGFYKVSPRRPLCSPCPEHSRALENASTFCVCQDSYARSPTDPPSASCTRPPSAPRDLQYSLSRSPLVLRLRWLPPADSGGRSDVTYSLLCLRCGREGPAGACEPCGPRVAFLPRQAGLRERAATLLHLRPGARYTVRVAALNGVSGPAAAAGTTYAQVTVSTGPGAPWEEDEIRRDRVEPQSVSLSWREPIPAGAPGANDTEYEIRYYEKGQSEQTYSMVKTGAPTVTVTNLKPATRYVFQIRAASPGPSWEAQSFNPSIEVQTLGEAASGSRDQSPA


How the values were obtained:
Assay in all cases: Selectivity ELISA of humanized antibodies for human Eph receptor
Format in all cases: binding
Conditions in all cases: coated protein 1 nM
human EphB3 = target: T1, human EphB3
Outline: (§1)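 Capture ELISA: anti-6-His coat, 1% BlockAce block, Eph ECD-SEAP-His (1 nM final, Expi293F supernatant) 1 h RT, humanized Ab 1 h RT, HRP anti-IgG 1 h RT, TMB, H2SO4 stop, A450.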

SEAP-His = SEAP-His (Homo sapiens, UniProt P05187)
Sequence of SEAP-His (P05187 23-511 limits assumed): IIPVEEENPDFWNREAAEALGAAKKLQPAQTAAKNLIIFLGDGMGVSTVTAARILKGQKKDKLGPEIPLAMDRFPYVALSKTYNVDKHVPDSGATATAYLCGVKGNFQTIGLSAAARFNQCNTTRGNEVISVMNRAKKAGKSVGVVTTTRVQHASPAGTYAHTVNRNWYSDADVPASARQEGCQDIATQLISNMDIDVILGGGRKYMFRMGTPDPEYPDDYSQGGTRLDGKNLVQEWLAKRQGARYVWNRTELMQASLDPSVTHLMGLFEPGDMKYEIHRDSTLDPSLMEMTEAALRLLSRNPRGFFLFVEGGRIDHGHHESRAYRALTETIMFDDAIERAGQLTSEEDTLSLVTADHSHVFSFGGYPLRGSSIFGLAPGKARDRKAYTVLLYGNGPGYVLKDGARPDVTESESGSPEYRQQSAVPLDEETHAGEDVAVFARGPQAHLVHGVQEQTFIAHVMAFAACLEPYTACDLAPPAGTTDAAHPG
Outline: as §1

human EphA10 = target: T2, human EphA10
Outline: as §1

Molecule | hEphB3-SEAP-: absorbance at 450 nm, percentage with respect to hEphA4-SEAP-His as 100% (human EphB3) [%] | SEAP-His: absorbance at 450 nm, percentage with respect to hEphA4-SEAP-His as 100% (SEAP-His) [%] | hEphA10-SEAP-: absorbance at 450 nm, percentage with respect to hEphA4-SEAP-His as 100% (human EphA10) [%]
160 (antibody, V domains shown, synthetic humanized antibody heavy chain variable region sequence; synthetic humanized antibody light chain variable region sequence) VH: QIQLVQSGSELKKPGASVKVSCKASGYTFTDYSMHWVRQAPGQGLKWMGWINTETGEPTYADDFKGRFVFSLDTSVSTAYLQISSLKAEDTAVYYCARIPLYYYGSRYWYFDVWGQGTTVTVSS VL: DIQMTQSPSSLSASVGDRVTITCRASENIYRNLAWYQQKPGKAPQLLLYAATNLADGVPSRFSGSGSGTDYTLTISSLQPEDFATYYCQHFWGTPWTFGQGTKVEIK | 6.2 | 6.3 | 5.0
132 (antibody, V domains shown, synthetic humanized antibody heavy chain variable region sequence; synthetic humanized antibody light chain variable region sequence) VH: QIQLVQSGSELKKPGASVKVSCKASGYTFTDYSMHWVRQAPGQGLKWMGWINTETGEPTYAQGFTGRFVFSLDTSVSTAYLQISSLKAEDTAVYYCARIPLYYYGSRYWYFDVWGQGTTVTVSS VL: EIVMTQSPATLSVSPGERATLSCRASENIYRNLAWYQQKPGQSPRLLIYAATNLADGIPARFSGSGSGTEYTLTISSLQSEDFAVYYCQHFWGTPWTFGQGTKVEIK | 4.7 | 4.9 | 4.7
135 (antibody, V domains shown, synthetic humanized antibody heavy chain variable region sequence; synthetic humanized antibody light chain variable region sequence) VH: QVQLVQSGSELKKPGASVKVSCKASGYTFTDYSMHWVRQAPGQGLEWMGWINTETGEPTYADDFKGRFVFSLDTSVSTAYLQISSLKAEDTAVYYCARIPLYYYGSRYWYFDVWGQGTTVTVSS VL: EIVMTQSPATLSVSPGERATLSCRASENIYRNLAWYQQKPGQSPRLLIYAATNLADGIPARFSGSGSGTEYTLTISSLQSEDFAVYYCQHFWGTPWTFGQGTKVEIK | 5.0 | 5.3 | 5.1
75 (antibody, synthetic humanized antibody heavy chain variable region sequence; synthetic humanized antibody light chain variable region sequence; synthetic antibody constant region sequence) VH: QVQLVQSGSELKKPGASVKVSCKASGYTFTDYSMHWVRQAPGQGLEWMGWINTETGEPTYAQGFTGRFVFSLDTSVSTAYLQISSLKAEDTAVYYCARIPLYYYGSRYWYFDVWGQGTTVTVSS VL: DIQMTQSPSSLSASVGDRVTITCRASENIYRNLAWYQQKPGKAPKLLVYAATNLADGVPSRFSGSGSGTDYTLTISSLQPEDFATYYCQHFWGTPWTFGQGTKVEIK ASTKGPSVFPLAPSSKSTSGGTAALGCLVKDYFPEPVTVSWNSGALTSGVHTFPAVLQSSGLYSLSSVVTVPSSSLGTQTYICNVNHKPSNTKVDKRVEPKSCDKTHTCPPCPAPPAAAPSVFLFPPKPKDTLMISRTPEVTCVVVDVSHEDPEVQFNWYVDGVEVHNAKTKPREEQFNSTFRVVSVLTVVHQDWLNGKEYKCKVSNKGLPAPIEKTISKTKGQPREPQVYTLPPSREEMTKNQVSLTCLVKGFYPSDIAVEWESNGQPENNYKTTPPMLDSDGSFFLYSKLTVDKSRWQQGNVFSCSVMHEALHNHYTQKSLSLSPG | 4.7 | 4.4 | 4.4
76 (antibody, V domains shown, synthetic humanized antibody heavy chain variable region sequence; synthetic humanized antibody light chain variable region sequence) VH: QVQLVQSGSELKKPGASVKVSCKASGYTFTDYSMHWVRQAPGQGLKWMGWINTETGEPTYAQGFTGRFVFSLDTSVSTAYLQISSLKAEDTAVYYCARIPLYYYGSRYWYFDVWGQGTTVTVSS VL: DIQMTQSPSSLSASVGDRVTITCRASENIYRNLAWYQQKPGKAPKLLVYAATNLADGVPSRFSGSGSGTDYTLTISSLQPEDFATYYCQHFWGTPWTFGQGTKVEIK | 5.0 | 5.5 | 4.7

The remaining lines, values ahead:

hEphB3-SEAP-: absorbance at 450 nm, percentage with respect to hEphA4-SEAP-His as 100% (human EphB3) [%] | SEAP-His: absorbance at 450 nm, percentage with respect to hEphA4-SEAP-His as 100% (SEAP-His) [%] | hEphA10-SEAP-: absorbance at 450 nm, percentage with respect to hEphA4-SEAP-His as 100% (human EphA10) [%] | Molecule
4.7 | 4.7 | 4.7 | 133 (antibody, V domains shown, synthetic humanized antibody heavy chain variable region sequence; synthetic humanized antibody light chain variable region sequence) VH: QVQLVQSGSELKKPGASVKVSCKASGYTFTDYSMHWVRQAPGQGLEWMGWINTETGEPTYAQGFTGRFVFSLDTSVSTAYLQISSLKAEDTAVYYCARIPLYYYGSRYWYFDVWGQGTTVTVSS VL: EIVMTQSPATLSVSPGERATLSCRASENIYRNLAWYQQKPGQSPRLLIYAATNLADGIPARFSGSGSGTEYTLTISSLQSEDFAVYYCQHFWGTPWTFGQGTKVEIK
5.2 | 5.1 | 5.0 | 134 (antibody, V domains shown, synthetic humanized antibody heavy chain variable region sequence; synthetic humanized antibody light chain variable region sequence) VH: QVQLVQSGSELKKPGASVKVSCKASGYTFTDYSMHWVRQAPGQGLKWMGWINTETGEPTYAQGFTGRFVFSLDTSVSTAYLQISSLKAEDTAVYYCARIPLYYYGSRYWYFDVWGQGTTVTVSS VL: EIVMTQSPATLSVSPGERATLSCRASENIYRNLAWYQQKPGQSPRLLIYAATNLADGIPARFSGSGSGTEYTLTISSLQSEDFAVYYCQHFWGTPWTFGQGTKVEIK
4.9 | 5.0 | 4.6 | 67 (antibody, V domains shown, synthetic humanized antibody heavy chain variable region sequence; synthetic humanized antibody light chain variable region sequence) VH: QIQLVQSGSELKKPGASVKVSCKASGYTFTDYSMHWVRQAPGQGLKWMGWINTETGEPTYAQGFTGRFVFSLDTSVSTAYLQISSLKAEDTAVYYCARIPLYYYGSRYWYFDVWGQGTTVTVSS VL: DIQMTQSPSSLSASVGDRVTITCRASENIYRNLAWYQQKPGKAPKLLVYAATNLADGVPSRFSGSGSGTDYTLTISSLQPEDFATYYCQHFWGTPWTFGQGTKVEIK
4.6 | 4.7 | 4.5 | 77 (antibody, V domains shown, synthetic humanized antibody heavy chain variable region sequence; synthetic humanized antibody light chain variable region sequence) VH: QVQLVQSGSELKKPGASVKVSCKASGYTFTDYSMHWVRQAPGQGLEWMGWINTETGEPTYADDFKGRFVFSLDTSVSTAYLQISSLKAEDTAVYYCARIPLYYYGSRYWYFDVWGQGTTVTVSS VL: DIQMTQSPSSLSASVGDRVTITCRASENIYRNLAWYQQKPGKAPKLLVYAATNLADGVPSRFSGSGSGTDYTLTISSLQPEDFATYYCQHFWGTPWTFGQGTKVEIK
